Results as given in patent US20220162304A1.

Tests used:
[1] = biological target: human CD79B antigen (coating antigen of the ELISA, construct not stated) (human) (UniProt P40259); assay: ELISA, plate coated with antigen at 1 ug/mL, serial antibody dilutions, OD450
[2] = biological target: fusion protein of human CD79B extracellular domain (ECD) and His tag (human CD79B ECD-His) (human) (UniProt P40259); assay: SPR (Biacore 8K; by Example 2 human CD79B-His immobilised on CM5 chip, antibody flowed over)
fusion protein of human CD79B extracellular domain (ECD) and His tag (human CD79B ECD-His) (human), sequence (P40259 29-159 limits assumed): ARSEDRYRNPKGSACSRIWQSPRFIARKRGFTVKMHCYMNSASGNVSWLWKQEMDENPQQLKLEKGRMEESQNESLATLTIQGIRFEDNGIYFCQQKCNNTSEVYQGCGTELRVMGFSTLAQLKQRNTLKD

human CD79B antigen (coating antigen of the ELISA, construct not stated) (human), sequence (P40259 29-159 limits assumed): as above

Substance: SN8 (antibody)
- EC50 (read off the curve) [1]: 0.1 nM
- Kd [2]: 5.98 nM
